Source: patent publication US20040219163

Molecular target: prostate-specific antigen (PSA) (UniProt P07288)
Sequence (P07288 25-261): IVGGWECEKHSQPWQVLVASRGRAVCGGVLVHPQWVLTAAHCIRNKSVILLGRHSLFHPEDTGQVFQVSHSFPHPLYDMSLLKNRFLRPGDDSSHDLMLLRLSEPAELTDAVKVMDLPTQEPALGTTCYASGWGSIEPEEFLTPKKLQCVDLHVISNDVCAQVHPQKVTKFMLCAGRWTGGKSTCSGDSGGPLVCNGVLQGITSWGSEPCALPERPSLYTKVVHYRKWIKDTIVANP

## Human glandular kallikrein (hK2)
  PSA enzymatic activity on chromogenic substrate S-2586 (absorbance at 405 nm); 100 ng hK2 added to 2.5 ug PSA from L1/PSA/IL2 supernatant: The activity of PSA is increased 500% when incubated with hK2
